Columns and labels:
[1] = target: T1, FRHSVV peptide, common epitope of mutant p53 (biotinylated) (human); assay: BIAcore (SPR), biotinylated peptide on streptavidin SA chip, scFv injected, 1:1 Langmuir model
[2] = target: T1, FRHSVV peptide, common epitope of …; assay: BIAcore (SPR), data not shown

Row | Binder | Kd [1] | Kd [2]
1 | F2 scFv (scFv) scFv: VQLLESGGGLVQPGGSLRLSCAASGFTFSGYWMHWVRQAPGKGLEWVSEISGSGDSTHYGDSVKGRFTISRDNSKNTLYLQMNSLRAEDTAVYYCARGRNGSLDYWGQGTLVTVSSGSAGGGGSGGGGSGGGGSDIVLTQPPSASGTPGQRVTISCSGTSSNIGADYDVHWYQQLPGKAPKLLIYDNNKRPSGVSDRFSGSKSGTSASLAISGLRSEDEADYYCAAWDSSLSSVVFGGGTQLTV | 11 nM | 
2 | A6 scFv (scFv) scFv: VQLLESGGGLVQPGGSPRLSCAASGFTFSGYWMHWVRQAPGKGLEWVSEISGSGDSTHYGDSVKGRFTISRDNSKNTLYLQMNSLRAEDTAVYYCARGRNGSLDYWGQGTLVTVSSGSAGGGGSGGGGSGGGGSDIVLTQPPSASGTPGQRVTISCTGGRFNIGDYAVNWYQQLPGKAPKLLIYDNDRRPSGVSDRFSGSKSGTSASLAISGLRSEDEADYYCAAWDDSLDGLVFGGGTQLTV |  | 23 nM
